B1: Azoarcus group I ribozyme (parent)
chain: GUGCCUUGCGCCGGGAAACCACGCAAGGGAUGGUGUCAAAUUCGGCGAAACCUAAGCGCCCGCCCGGGCGUAUGGCAACGCCGAGCCAAGCUUCGGCGCCUGCGCCGAUGAAGGUGUAGAGACUAGACGGCACCCACCUAAGGCAAACGCUAUGGUGAAGGCAUAGUCCAGGGAGUGGCGAAAGUCACACAAACCGG

Variants of: B1
Assay: reverse-splicing fitness (ratio to wild type); higher = more active; in vitro selection; Mg2+ level not given
Procedure, shortened: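 An in vitro group I ribozyme library with randomized positions was T7-transcribed and gel-purified. In triplicate, 10 pmol RNA in EPPS pH 7.5 was reacted with 50 pmoles of a 30-nt RNA substrate for 1 h at 37 °C across several added MgCl2 levels (1–48 mM), then stopped with EDTA. Products were reverse transcribed from a substrate-complementary primer, PCR-amplified and sequenced (HiSeq 4000). Fitness is a variant's read proportion after selection over that before, normalised to wild type.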

| Variant | reverse-splicing fitness |
| --- | --- |
| A120G A145C C150G C169U U176G | 0.00576 |
| A120G A145C C150U | 0.166 |
| A120G A145C C150A | 0.0374 |
| A120G A145C C150G | 0.0854 |
| A120C U176C | 0.714 |
| A120C U176A | 0.663 |
| A120C U176G | 0.244 |
| A120U A145C C150A C169A | 0.0021 |
| A120G A145C C150A C169U | 0.0377 |
| A120G A145C C150A C169G | 0.0475 |
| A120G A145C C150A C169A | 0.029 |
| A120G A145C C169A | 0.41 |
| A120G A145C C169G | 0.614 |
| A120G A145C C169U | 0.435 |
| A120G A145G C150U C169A | 0.369 |
| A120G A145G C150U C169U | 0.37 |
| A120G A145G C150U C169G | 0.502 |
| A120C C150U C169U | 0.345 |
| A120C C150U C169A | 0.0269 |
| A120C C150U C169G | 0.0172 |
| A120G A145C C150U C169U U176G | 0.00915 |

| Variant | reverse-splicing fitness |
| --- | --- |
| A120G A145C C150U C169U U176C | 0.0977 |
| A120G A145C C150U C169U U176A | 0.0904 |
| A120G A145C U176C | 0.227 |
| A120G A145C U176A | 0.179 |
| A120G A145C U176G | 0.0166 |
| A120G C150G C169G U176C | 0.00733 |
| A120G C150G C169G U176A | 0.0132 |
| A120G C150G C169G U176G | 0.00469 |
| A120U A145C | 0.787 |
| A120U A145C C150A | 0.116 |
| A120G C150U C169G | 0.419 |
| A120G C150U C169U | 0.284 |
| A120G C150U C169A | 0.29 |
| A120C C169U U176G | 0.0174 |
| A120C C169U U176C | 0.174 |
| A120C C169U U176A | 0.155 |
| A120C A145U C169G U176G | 0.0038 |
| A120G A145U C150G C169U U176G | 0.00602 |
| A120G A145U C150G C169U U176A | 0.0333 |
| A120G A145U C150G C169U U176C | 0.0556 |
| A120C C150G C169G U176G | 0.0036 |

| Variant | reverse-splicing fitness |
| --- | --- |
| A120C C150G C169G U176C | 0.00463 |
| A120C C150G C169G U176A | 0.0074 |
| A120C C169A | 0.0364 |
| A120C C169G | 0.029 |
| A120C C169U | 0.435 |
| A120C C150A C169U U176A | 0.0533 |
| A120C C150A C169U U176G | 0.00663 |
| A120C C150A C169U U176C | 0.0627 |
| A120C C150U U176A | 0.643 |
| A120C C150U U176G | 0.181 |
| A120C C150U U176C | 0.596 |
| A120G A145G U176G | 0.0157 |
| A120G A145G U176C | 0.246 |
| A120G A145G U176A | 0.193 |
| A120G C150U C169G U176C | 0.195 |
| A120G C150U C169G U176G | 0.00753 |
| A120G C150U C169G U176A | 0.157 |
| A120G A145U C150U C169G U176C | 0.207 |
| A120G A145U C150U C169G U176G | 0.00892 |
| A120G A145U C150U C169G U176A | 0.157 |
| A120G A145U C169U U176G | 0.0221 |

| Variant | reverse-splicing fitness |
| --- | --- |
| A120G A145U C169U U176A | 0.174 |
| A120G A145U C169U U176C | 0.194 |
| A120G A145G C169A U176A | 0.114 |
| A120G A145G C169A U176C | 0.185 |
| A120G A145G C169A U176G | 0.00693 |
| A120C C169A U176G | 0.00454 |
| A120C C169A U176C | 0.0233 |
| A120C C169A U176A | 0.0173 |
| A120G A145U C150G | 0.07 |
| A120G A145U C150A | 0.0603 |
| A120G A145U C150U | 0.384 |
| A120G A145C C150U U176G | 0.0108 |
| A120G A145C C150U U176C | 0.0938 |
| A120G A145C C150U U176A | 0.0853 |
| A120G A145C C150A C169U U176C | 0.0294 |
| A120G A145C C150A C169U U176A | 0.0398 |
| A120G A145C C150A C169U U176G | 0.00621 |
| A120G A145U C150A C169U U176A | 0.0594 |
| A120G A145U C150A C169U U176C | 0.0534 |
| A120G A145U C150A C169U U176G | 0.00749 |

Reference: the RNAGym collection of RNA variant scans (doi:10.1093/molbev/msab373)
